Measurements published in IntAct's records for PubMed 20835227.

B1: DNA replication regulator SLD3 (Saccharomyces cerevisiae), P53135 (parent)
chain: METWEVIASVKEATKGLDLSLDHPLIIKSEDVPSNILQLLQQKNRRQLKHICMKSRKEYFLLEEYGPGFWVKWPYNYFNGYSLPERRTEVVTTVERERAKRETLKTWDELKFKELLHLWSEEPKGSCKLEKDKDLKLDMNPPDMKGESKINDYYSDPKEYIESKYYDALFSIHTPLAYFVKSNLVRLKNTCRTKYGSDSYKIAYQAMLQKFLLSIVQFKDRHDNRLLLEPFSSPIADEKRKNCLTKFVIQDENKNSSTIADLCVVLKSREIKLQILLLLEIIGLNDLDWNFRDFEKKYKLKLKKRSLNLTKKGLVRRRSKKKTSEKDKGIERITTSLDYCEQLDLYLDRACILDILLSSETPNPDAIEASNGTIQEHKKNILDKSKEASLVGFINYVLIPYFNKKVPHAVEFIIQKLKGPSMRPKRALKKVNDSTNVSSPNTVETYNRLSTSQRASRSSIINSVPSSPALRRVDANLFSRKSIASPTPELLNSRTNSNLNEFLESETRSLKRPSQLGRTKSDLTMNHLQKRQFSVSDLSTTRVPNSSTITLKTPFSHSTINAYKTMNNSFRRVGKRKDINETIRLHERVDSEENVQVQATPAVKKRTVTPNKKAQLQSIIESPLNFKDDDTHEGRKNTSNITSTPTNKPPENSSKRRVRRRLFAPEST
partner: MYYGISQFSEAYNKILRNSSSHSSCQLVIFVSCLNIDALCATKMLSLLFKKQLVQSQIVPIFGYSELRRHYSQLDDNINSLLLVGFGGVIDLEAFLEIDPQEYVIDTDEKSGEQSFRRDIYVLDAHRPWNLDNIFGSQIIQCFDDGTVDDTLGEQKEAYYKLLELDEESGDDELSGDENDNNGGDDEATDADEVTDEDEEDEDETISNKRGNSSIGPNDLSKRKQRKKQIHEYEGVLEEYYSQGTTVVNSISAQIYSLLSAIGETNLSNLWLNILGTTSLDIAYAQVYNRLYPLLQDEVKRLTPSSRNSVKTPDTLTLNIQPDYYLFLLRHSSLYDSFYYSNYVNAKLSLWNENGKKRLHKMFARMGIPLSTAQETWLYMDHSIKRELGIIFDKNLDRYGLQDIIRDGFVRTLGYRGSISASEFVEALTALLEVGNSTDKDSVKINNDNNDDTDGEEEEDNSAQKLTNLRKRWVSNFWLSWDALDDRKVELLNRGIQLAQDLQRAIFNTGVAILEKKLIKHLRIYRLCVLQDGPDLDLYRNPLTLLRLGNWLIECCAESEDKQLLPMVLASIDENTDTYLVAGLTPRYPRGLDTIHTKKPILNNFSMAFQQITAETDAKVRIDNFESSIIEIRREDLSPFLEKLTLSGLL

Variants of: B1
Conditions: with cdc45_yeast CDC45, Q08032

effect of a mutation on the interaction	Variant
disrupting interaction	S306D;T310D
